Tests used:
S100B [1] = target: T1, S100B (Homo sapiens, UniProt P04271); assay: Tryptophan fluorescence quenching binding studies
T1 construct: purchased Sigma-Aldrich
T1 sequence (P04271 2-92 limits assumed): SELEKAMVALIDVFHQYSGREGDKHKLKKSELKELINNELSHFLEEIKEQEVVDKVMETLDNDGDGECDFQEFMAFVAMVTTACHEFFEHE
Procedure: The tryptophan fluorescence of 5.0 μM Synb1-ELP-TRTK, 5.0 μM Synb1-ELP-GGC and 5.0 μM TRTK12 were measured using an Aminco Bowman Series 2 fluorescent spectrophotometer with and Excitation wavelength of 295 nm and an Emission wavelength of 350 nm in 25 mM TrisHCL and 0.1 mM CaCl2 at 12° C. (to avoid aggregation of ELP) or in a solution of containing 25 mM TrisHCL, 0.1 mM CaCl2 and 1 mM EGTA at 12° C. S100B was titrated from 100 nM up to 3.0 μM into the various peptide solutions and changes in tryptophan fluorescence were recorded into an Excel file and graphs produced. A Fluorescence % was plotted against free S100B concentration using GraphPad Prism software. A Fluorescence % was calculated as follows: [(Maximum fluorescence−Observed fluorescence)/(Maximum fluorescence−Minimum Fluorescence)]×100%. Where the maximum fluorescence is the fluorescence of 5.0 μM Synb1-ELP-TRTK or 5.0 μM TRTK12 before titration of S100B and the minimum fluorescence is the fluorescence of 5.0 μM Synb1-ELP-TRTK or 5.0 μM TRTK12 fully saturated with bound S100B. […]
Alterations in the binding affinity of a peptide due to its fusion to ELP have never been studied previously. […] Fluorescent spectroscopy is a sensitive tool used to monitor changes in the local environment of tryptophan residues that occur during a protein-ligand binding event; furthermore, changes in tryptophan fluorescence can be used to calculate binding affinity (Weljie and Vogel, 2000, Bocedi et al., 2004). Previous work has shown that S100B binding reduces tryptophan fluorescence of TRTK12 and like peptides (Ivanenkov et al., 1995). The tryptophan fluorescence of 5.0 μM Synb1-ELP-TRTK and 5.0 μM Synb1-ELP-GGC were measured using a fluorescent spectrophotometer with an Excitation wavelength of 295 nm and an Emission wavelength of 350 nm in 25 mM TrisHCL and 0.1 mM CaCl2 at 12° C. At 295 nm, tryptophan emission spectrum is dominant over the weaker tyrosine and phenylalanine fluorescence (Vivian and Callis, 2001). […] W755 has very little fluorescence at 350 nm which may be due to the 150 neighboring VPGXG repeats of ELP (FIG. 12A). […]

S100B [2] = target: T1, S100B; assay: Thermal pull-down assay of ELP polypeptide with S100B; assay type: binding; conditions: 60 μM polypeptide, western blot with S100B antibody
Procedure: FIG. 9 is a blot showing that CPP-ELP-TRTK12 interacts with S100B protein in vitro. Solutions containing 60 μM Synb1-ELP-TRTK12 or Synb1-ELP were mixed with or without 1 μM S100B in PBS for 30 min at 37° C. The solutions were then incubated in a hot water bath maintained at 50° C. for 5 minutes to induce SynB1-ELP-TRTK12 aggregation. After heating, the solutions were centrifugated at 14,000 rpm to recover the ELP polypeptide aggregates (pellets). The ELP polypeptide pellets were washed 3 times with PBS and reheated and pelleted between washes. To assess ELP polypeptide-S100B interactions, the remaining ELP pellets were subjected to western blotting using a S100B antibody.
Shown are the turbidity assay results of various concentrations of (b) Synb1-ELP-GGC and (c) Synb1-ELP-TRTK heated from 25° C. to 75° C. […] (d) Shown is the thermal pull-down assay procedure, where a solution containing S100B and Synb1-ELP-TRTK protein are allowed to interact at 37° C. in a microcentrifuge tube. […] Once the supernatant is removed the protein pellet can be analyzed by western blotting techniques to reveal protein-protein interactions. […] Solutions containing 60 μM Synb1-ELP-TRTK or Synb1-ELP-GGC (control peptide) were mixed with or without 1 μM S100B and subjected to thermal pull-down assay procedure and analyzed by western blotting using an S100B antibody. […]

Synb1-ELP-TRTK: thermally responsive S100B inhibitory polypeptide: Synb1 cell penetrating peptide, elastin-like polypeptide (ELP) and TRTK12 peptide fused
impact on S100B binding affinity compared to the TRTK12 peptide alone (S100B [1]): 2 fold | Kd (S100B [1]; 5.0 μM peptide, 25 mM TrisHCL, 0.1 mM CaCl2, 12° C.): 518 ± 80 nM | effect of S100B titration on tryptophan fluorescence at 350 nm with calcium depleted (S100B [1]; 25 mM TrisHCL, 0.1 mM CaCl2 and 1 mM EGTA): no effect | interaction with S100B dimer and monomer (FIG. 9) (S100B [2]; 1 μM S100B in PBS, aggregation at 50° C.): strong interaction | interaction with S100B (FIG. 11E) (S100B [2]; 1 μM S100B, thermal cycling at 42° C.): bound both S100B monomers and dimers
